Target: EBNA1 DBD WT (Epstein-Barr virus (B95-8), UniProt P03211 459-607)
Assay: SDS-EMSA

Sequence of EBNA1 DBD WT (P03211 459-607): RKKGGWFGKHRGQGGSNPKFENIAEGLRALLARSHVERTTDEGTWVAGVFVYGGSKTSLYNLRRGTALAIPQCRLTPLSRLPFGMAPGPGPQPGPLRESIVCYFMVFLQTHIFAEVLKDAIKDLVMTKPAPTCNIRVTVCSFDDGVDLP

B1: 2xFR (dsDNA)
DNA 1: ATTAGGATAGCCTATGCTACCCAGATATAGATTAGGATAGCATATGCTACCCAGATATAGAGAGCGTCACCTAAGCC
DNA 2: GGCTTAGGTGACGCTCTATATCTGGGTAGCATATGCTATCCTAATCTATATCTGGGTAGCATAGGCTATCCTAAT
B1: binds.

Source: article PMC8186250
